Test results from a protein production outcome set (Wang et al. 2014).

Assay: label from the status in PepcDB records
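Further: failed if final PepcDB status was selected cloned or expressed and not failed if soluble or beyond.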

Sequence	protein production
MLKSEDADYEKAMKDKVGTGPQEYLKQLSDSLVKNQSAASVEVVSGATHSSDAFINYANQLIQAAQKADTTTISINNLAKMEDGTYKLEEQNYAHGYRVVFSMDVKDGKITKSDYNYVDKDGKLKSDDADYEKNMKAKSGTGPKEYIPALNKSLVEKQDVAAVDTVSGATNSSNQFKIYAAQLQNAAQNGNTDTIKVYNLVEAELEHHHHHH	failed
MPIMGSSVYITVELAIAVLAILGNVLVCWAVWLNSNLQNVTNYFVVSLAAADIAVGVLAIPFAITISTGFCAACHGCLFIACFVLVLTQSSIFSLLAIAIDRYIAIRIPLRYNGLVTGTRAKGIIAICWVLSFAIGLTPMLGWNNCGQPKEGKNHSQGCGEGQVACLFEDVVPMNYMVYFNFFACVLVPLLLMLGVYLRIFLAARRQLKQMESQPLPGERARSTLQKEVHAAKSLAIIVGLFALCWLPLHIINCFTFFCPDCSHAPLWLMYLAIVLSHTNSVVNPFIYAYRIREFRQTFRKIIRSHVLRQQEPFKAAGTSARVLAAHGSDGEQVSLRLNGHPPGVWANGSAPHPERRPNGYALGLVSGGSAQESQGNTGLPDVELLSHELKGVCPEPPGLDDPLAQDGAGVS	not failed
MIVFKAENLSVGYNGVKAVSNINFSAKQGEIICLLGPNGAGKTTIIRTLSGLLPPIEGEIHINGKSLSTINKKLLAQTLSVVLTEKPSFDVMTAFDVVSLGRFPHTGFFGTITKEHEIKVVEALKTVGALNLIDKYFHILSDGERQKVMLARALVQEPQIIILDEPTTHLDINHKIELLNTLKNLSRTAKLTVILSLHEIDLALKYCDKVMLVENKKVLSFGSPETTVNGETINKLYGIKNASFNPITSSIELKNSEKSNIYVIGGCGFGTPIYRLLSKYNLGFSTGILHENDIDYETAKTMSLRLQSEKPFQKISKISFEKALAAVASSDIIIDSGFPIGETNEKNLNLLNYAVEKNKRVITFRKYFNSTMSYCSNKDALIDFILRLEHHHHHH	failed
MDIGRKRDVFLIILPALCAFALALIPTFRYTVPLTWDVYYHIHNATLYMGRGIVFWDPLTSAPHGRPLYYPPLFHIMLLFLSKITGLGFFTVSRFMQPVFAFLILLSFSYVSGKLYGPLAGFLTGMFLFSSLFFMRMMFPIPESLAMISIPLFVYGYYRSMECCSRLYPVLTGLLLGLMLMTHILSASIILAVVTLSTIVLYIGKYDIRPWNLLIILGSGLLLASVWYAPLIVKYGFVFRSPATSSLPLEGYITHLGVLLTILSLAGIVHAAGRREKKDVIMAVWTVFVLALTAAYLLGLKVLSDRILYFALFPMATLSANLFNSIRINNGKWSFYAIILLISLYCIYDGYSLASSIKLEVSDSELDIAEWFRYNGDHATVVVSDYHIQPAIVAVSGQPVSAGGYAPGTIRSINVEKYISSFNYTKHDIMRDRVGYIILDNEERTPPYSRLVYRNRDFSVYRVNV	failed
MPSPSGGWGCGGTWARGVDGARLFSIHHQAVRPNLSTISPPKEPPMIEVRHLCKSFARKPAVQDISFSIPAGEIVGYLGPNGAGKSTTIKVLTGLLVPDSGEVRVGGLVPWKQRRQHVARLGAVFGQRTTLWWDLPVRESLELLRHVYRVPAARFAENLAGFTELLELGPFLNTPARALSLGQRMRADLAAALLHDPELLFLDEPTVGLDVVAKERIREFVKAVNAERGVTVLLTTHDLGDVERLARRVMMIDTGRLLFDGPLAELQARYGGERELWVEFEKAPAQPALPGLTLLGQDGPRVRYGFSGAAAAPIAQVTALAPVRDLAVKEPEVEATIRRIYEGNLLGSRSVREGLEHHHHHH	failed
MKRPELIIFDWDGTLFDSVGQIVASLRFAADQFNQPLTDEAAQSIIGLGLPEVMQALFPQVPHLHQEILVHYGEHYVENSKHDAWFEGVAELLHDLKAQGIKLAVATGKSRRGLDRVLNKTQSHELFDITRAASETMSKPHPRMLEEILQVTQVEAQHAIMVGDSSYDLEMAKNIDMPRVGVSYGVHEVDVLQRYEPLTIVDSIAELHHYLTQLLQEKIHA	failed
MPDADVNDFELVDVDQKAADKAIKDLGVKATIDEVCTVGEEGYVVTATDKEGYGGDIKITVGITADGTINGISILSISETAGLGMRATEPAFYEQYQGKQAEKFVVSKDGGDGEPIDALSGATITSRAVTGAVNAALGYYQNAFLEHHHHHH	not failed
MSRPPTTPSAPQTADLVRPARRGDLDGLLALARAADAGMTNLPADRAALDDRLAASEQALIDPETRNAGAAVYLVLERQGRVIGAACVFARIGVAQPFYSYRVTRLTQLSPDLGKRVEMSVLTLVNDLTDQAEVGGLFVAPDAR	failed
MSLGAFLDKPKTEKHNAHGAGNGLRYGLSSMQGWRVEMEDAHTAVVGIPHGLEDWSFFAVYDGHAGSRVANYCSTHLLEHITTNEDFRAAGKSGSALELSVENVKNGIRTGFLKIDEYMRNFSDLRNGMDRSGSTAVGVMISPKHIYFINCGDSRAVLYRNGQVCFSTQDHKPCNPREKERIQNAGGSVMIQRVNGSLAVSRALGDYDYKCVDGKGPTEQLVSPEPEVYEILRAEEDEFIILACDGIWDVMSNEELCEYVKSRLEVSDDLENVCNWVVDTCLHKGSRDNMSIVLVCFSNEGHHHHHH	not failed
MESLPVLGVFFMVKTANVAVMPLFPRSQYRIIGQIGQGQFGRVYCAIHRTTGKMYALKDLEHRVFPTNKFLRELSYLLTLRHPNIVACHGLEYHPGGRYLVMDYCEGGTLRDIIDGDGDLCLAGKIDLLRQILLGLAQAHQHDIVHCDLKPENILLIPRAEGWQVKVSDFGIARLTAKTGNPNFSKGYTGSPAYMAPERFYGKFSVASDIYAVGILLYELIVGDRPFSGFPKALQAAHLNVRLTLPPEFPPLLAPIVQRALEKLPQRRFPNATAMASDLATVQKQILEQDPPRGNGYLYHHLAPAPLAFTATVKHSTPLLFPISHLTGAGLWLYLGNGAELYLWEYGDGNVEHHPLPRWALGLPGTIANLEVNQDQISLLIQGGEPGEWQFYQWRETLLGALSLPKPRINLRAERLLANLSPGGKTLAVVVGDRDSEKGHFQLWRTDHSLPVAAAVVIRWPDQLLTLDQNHGLLVQSQSTASYCHTIFFLFNRRGSLFPAFRLSFLVFQLVVNRYSRNHLFGLADNAPYTGILIRLQPLKVNRIALTIQPQFIEPFPWGYLLADRHGEVALLDYEGFLFGNFSLGETITAIAPMGRYLCLFATWQGNGGTLRLLDLGPQVENIIRQRQEKR	failed
DREREQHKREEAIQNFKALLSDMVRSSDVSWSDTRRTLRKDHRWESGSLLEREEKEKLFNEHIEALTKKKRE	not failed
MSAEPRLHTLRVARTARVATLGTPATAGSWWVVLHGYGQLAADFVSAFHPLVAPDRCVVAPEGLSRFYVDGMAQHEQVGASWMTREAREAEVSDYVDALDATVRHLADDTPPSLHVLGFSQGAVTASRWALWGDTAVDRLVLWGGAPAHDLDLAEHAASLRALDLTLVAGTEDPYVTDDRWAAIRRRLQAHDIPVTTRTFEGGHRIDPAPLRALVAPA	failed
MTEIQRLLSETIDDLNIREKRDNRPRFSISFIRKHPGLFIAMYAAWFATLAVMLQSETLVGSVWLLVVLFIAFNGFFFFDIAPRYHYNDIDVLDLRVCYNGEWYNTRFVPPTLIETILQSPQVDNEHKVQLQKMVARKGELSFYDIFTLARAEASR	failed
MIHQIESVQAGKKIYFLSDFHLGVPSDEESWKREKKIIRFLDSITPAAQAVFLLGDIFDFWFEYKHVIPKGFARLQGKIAQLTDSGIPVYLYTGNHDLWMFGYLEKELGVTVFHKPIDWEIAGKKFLIGHGDGLGPGDFVYKCTKKVFVNPFFQWVFKMTPPAIGMGIAKFWSGKSRQHNTDDRFFEEKEFLWQYCKEQNVLKHRSYYIFGHRHMPLDLPVGDSARYVNIGDWIKFDTFAEFDGNELKLISWKETSEPYSL	failed
MAQNNENALPDITKSITLEAPIQKVWETVSTSEGIAKWFMPNDFQLKEGQEFHLQSPFGPSPCKVLAVQAPTELSFEWDTEGWVVTFQLEDLGEKTGFTLIHSGWKEPNEVIGKANEKSSVVRGKMDGGWTGIVNERLRKAVEELEHHHHHH	not failed
MNTKKESALSFPSAGIESFGERLKELMGDESLRAFANAIDTSEGGVRKWFTQSTMPSFDKMVRIARRYNVNLEWLCTGEGPKFPGETAAYESVICKTEEFSEEYALIDGYHTQVSTGHGAQWDNERVRRKLAFRSKWLRYRGLQPENLRVVFAKGDSMEPTIHSGDSILVDITDANLSDGSIFVLRIGDDLFAKRVQVHIDGSITIISDNKEYREQRVPVAELGLLSVVGKVVWIGKDVK	failed
EREEEPAVQGNPDESLTVEGALEYVELAPQLNLPQQEEDADFHTVAGLIMEELQTIPDVGDFADFHGWRFEVVEKEGQRIERVKITKLP	not failed
KNVNRVLSAEALKPGMLLTGTVSSLEDHGYLVDIGVDGTRAFLPLLKAQEYIRQKNKGAKLKVGQYLNCIVEKVKGNGGVVSLSVGHSEVSTAIATEQQSWNLNNL	not failed
SEDPVFTFGLIADVQYADIEDGENYLRTRRRYYRGSADLLRDAVLQWRRERVQCVVQLGDIIDGHNRRRDASDRALDTVMAELDACSVDVHHVWGNHEFYNFSRPSLLSSRLNSAQRTGTDTGSDLIGDDIYAYEFSPAPNFRFVLLDAYDLSVIGREEESEKHTHSWRILTQHNHNLQDLNLPPVSVGLEQRFVKFNGGFSEQQLQWLDAVLTLSDHKQERVLIFSHLPVHPCAADPICLAWNHEAVLSVLRSHQSVLCFIAGHDHDGGRCTDSSGAQHITLEGVIETPPHSHAFATAYLYEDRMVMKGRGRVEDLTITYS	not failed
MSVKTWRKIAIDIIRDFDHNIMPLFGNPKASETISISPSGDETKVVDKVAENIIISKFKDLGVNVVSEEIGRIDQGSDYTVVVDPLDGSYNFINGIPFFAVSVAIFHEKDPIYAFIYEPIVERLYEGIPGKGSYLNGEKIKVRELAEKPSISFYTKGKGTKIIDKVKRTRTLGAIALELAYLARGALDAVVDIRNYLRPTDIAAGVVIAREAGAIVKDLDGKDVEITFSATEKVNIIAANNEELLETILRSIEK	not failed
MTARPDSSGASSRHDRLQRHPTPNARNSLWRWTDAKHPLRVALNYVVIVLARISPSLHAKNWLLARIGVTVGDGVAWGLESTPDVFWPELVTVGDDAIIGYDATLLCHEFLHDEYRTGAVVVEDRAMIGAGAVVLPGVTIGADAQVAANSLVTADVPPGETVAGVPAAPTGD	failed
MNKFLVSLFLPLVAFANSSEAAANANLFGAFTLIPPLVAIALAFITKDVILSLFTGVLSGTFLLSLSANIFKAQHLTFVNYYNTTVESFSKIISYILGSTSDPVNAGIILQILCIGGLVALITKMGGAKAVALKFAKRAKSAVSAQVNTWFLGLLIFFDDYANLLIVGPIMRPLADKFKISREKFAFIIDSTAAPVAGIAVISTWIGLEVSLIKTAYEHIGISNISAFGIFVETIPYRFYNIFMLFFVVMTAIMRREFGSMYKAEVRARTTGQIAPLPKSGTLDTTELEDQFLAPKEGIKIRAFDAIVPIFTLIILAILGFYFNGLSTLEGEELAKASANPLSFETFRAAFGNADSSVVLFQAALFAAIVAIFIGVRRKIFNLKEAVETWIYGWKTMIFTIVLLLFAWSLSSIVKDLGTSLFITSLLADKLPEFILPATIFAFASAISFAIGTSYGTMGILMPLAVPLAHEIAKINGMDANAMHHYMVINISCVLTGAIFGNHCSPISDNVILSSMSAKCDHMEHVRTQIPYALFICGISLIAGYIPVSLGLSVWFVLPLNFILIALLLRLIGKKVP	failed
MMAKLVVCIIDGMADPPPPAGGVTPLAAAHTPHCDTLARHSVAGLCHVIQPEAVPGSEAGLSALLCCEAAASIARGPVEALAQGDPVAPHETVWRLNLVSLGPRGNYYNPAPLLDAATETAARKMLDRALGTQGYSLLGGKGFRHLCAGTEPPVLRDGPQDVCGMTPDTGQADLNSYCPRLARAMTEANVLFRRSRMDLAVWPWGAGTMPDLPGFAETTGQTGALAGGVPLARGLALALGMTAPSIAGATGGIDTDLGAKTRAAIALAAGHDVVYLHVEAPDLHAHALDRVAKRRAIERIDAEVVGPLHMALPDATLLITCDHATDCATGRHMAIPVPFILHKPDGPQDGIATFSEAASARTGIRIDSAATLVRLALADLEHHHHHH	not failed
